Laboratory results taken from the supplement of paper PMC10065799, “High-throughput profiling of sequence recognition by tyrosine kinases and SH2 domains using bacterial peptide display” (eLife, 2023).

How the values were obtained:
AncSZ = test: phosphorylation enrichment, bacterial display (enrichment ratio); higher = better substrate or ligand; peptides without Tyr show the background
EPHB1 = EPHB1 (UniProt P54762); test: as above
EPHB2 = EPHB2 (UniProt P29323); test: as above
FGFR1 = FGFR1 (UniProt P11362); test: as above
FGFR3 = FGFR3 (UniProt P22607); test: as above
Fer (mouse) = test: as above
Fes = Fes (UniProt P07332); test: as above
Fyn = Fyn (UniProt P06241); test: as above
Hck = Hck (UniProt P08631); test: as above
Jak2 = Jak2 (UniProt O60674); test: as above
MERTK = MERTK (UniProt Q12866); test: as above
c-Abl (mouse) = test: as above
c-Src = test: as above
Grb2 SH2 = Grb2 SH2 (UniProt P62993); test: SH2 binding enrichment of the phosphorylated peptide, bacterial display (enrichment ratio); higher = better substrate or ligand; peptides without Tyr show the background
SHP2-C SH2 = test: as above
c-Src SH2 = test: as above
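For SH2 binding enrichment of the phosphorylated peptide, bacterial display in this document: peptide library displayed on the E. coli surface as eCPX fusions, selected cells deep-sequenced, score is each peptide's frequency after selection divided by its frequency in the input.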
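For phosphorylation enrichment, bacterial display in this document: 11-residue human phosphosite peptides and single-mutation variants displayed on the E. coli surface, counted by deep sequencing, each peptide's frequency after selection divided by its frequency in the unselected input library; frequency after pTyr selection over input frequency; kinase dosed for 20-30% of maximal phosphorylation in three min.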

EPHB2, sequence (P29323 whole entry, looked up): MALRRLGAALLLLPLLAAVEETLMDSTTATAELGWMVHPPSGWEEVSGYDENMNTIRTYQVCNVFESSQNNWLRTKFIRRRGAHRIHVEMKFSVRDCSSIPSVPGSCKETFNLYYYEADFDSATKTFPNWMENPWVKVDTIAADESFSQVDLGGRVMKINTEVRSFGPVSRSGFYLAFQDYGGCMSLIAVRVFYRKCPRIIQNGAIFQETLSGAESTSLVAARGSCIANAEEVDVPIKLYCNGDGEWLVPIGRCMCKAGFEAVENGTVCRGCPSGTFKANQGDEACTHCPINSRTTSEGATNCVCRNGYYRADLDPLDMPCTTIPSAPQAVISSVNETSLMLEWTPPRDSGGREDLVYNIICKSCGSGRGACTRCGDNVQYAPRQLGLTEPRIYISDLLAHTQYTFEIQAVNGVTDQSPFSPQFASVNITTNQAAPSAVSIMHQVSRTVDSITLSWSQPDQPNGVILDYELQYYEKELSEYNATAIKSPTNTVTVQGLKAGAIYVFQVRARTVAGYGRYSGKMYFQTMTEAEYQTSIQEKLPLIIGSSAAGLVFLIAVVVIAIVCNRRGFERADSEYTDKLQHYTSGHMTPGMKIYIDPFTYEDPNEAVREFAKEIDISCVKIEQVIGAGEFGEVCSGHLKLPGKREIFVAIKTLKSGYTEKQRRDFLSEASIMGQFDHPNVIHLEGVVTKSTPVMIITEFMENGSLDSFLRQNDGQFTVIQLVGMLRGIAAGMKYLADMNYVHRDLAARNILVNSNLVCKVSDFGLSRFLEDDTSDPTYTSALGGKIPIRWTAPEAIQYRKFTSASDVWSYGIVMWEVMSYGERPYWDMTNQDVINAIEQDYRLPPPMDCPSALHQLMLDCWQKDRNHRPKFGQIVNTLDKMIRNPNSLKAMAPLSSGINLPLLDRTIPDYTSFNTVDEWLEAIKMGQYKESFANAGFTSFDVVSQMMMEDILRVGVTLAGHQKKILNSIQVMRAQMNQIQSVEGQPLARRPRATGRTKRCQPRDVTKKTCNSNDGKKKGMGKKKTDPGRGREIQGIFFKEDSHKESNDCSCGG
Jak2, sequence (O60674 whole entry, looked up): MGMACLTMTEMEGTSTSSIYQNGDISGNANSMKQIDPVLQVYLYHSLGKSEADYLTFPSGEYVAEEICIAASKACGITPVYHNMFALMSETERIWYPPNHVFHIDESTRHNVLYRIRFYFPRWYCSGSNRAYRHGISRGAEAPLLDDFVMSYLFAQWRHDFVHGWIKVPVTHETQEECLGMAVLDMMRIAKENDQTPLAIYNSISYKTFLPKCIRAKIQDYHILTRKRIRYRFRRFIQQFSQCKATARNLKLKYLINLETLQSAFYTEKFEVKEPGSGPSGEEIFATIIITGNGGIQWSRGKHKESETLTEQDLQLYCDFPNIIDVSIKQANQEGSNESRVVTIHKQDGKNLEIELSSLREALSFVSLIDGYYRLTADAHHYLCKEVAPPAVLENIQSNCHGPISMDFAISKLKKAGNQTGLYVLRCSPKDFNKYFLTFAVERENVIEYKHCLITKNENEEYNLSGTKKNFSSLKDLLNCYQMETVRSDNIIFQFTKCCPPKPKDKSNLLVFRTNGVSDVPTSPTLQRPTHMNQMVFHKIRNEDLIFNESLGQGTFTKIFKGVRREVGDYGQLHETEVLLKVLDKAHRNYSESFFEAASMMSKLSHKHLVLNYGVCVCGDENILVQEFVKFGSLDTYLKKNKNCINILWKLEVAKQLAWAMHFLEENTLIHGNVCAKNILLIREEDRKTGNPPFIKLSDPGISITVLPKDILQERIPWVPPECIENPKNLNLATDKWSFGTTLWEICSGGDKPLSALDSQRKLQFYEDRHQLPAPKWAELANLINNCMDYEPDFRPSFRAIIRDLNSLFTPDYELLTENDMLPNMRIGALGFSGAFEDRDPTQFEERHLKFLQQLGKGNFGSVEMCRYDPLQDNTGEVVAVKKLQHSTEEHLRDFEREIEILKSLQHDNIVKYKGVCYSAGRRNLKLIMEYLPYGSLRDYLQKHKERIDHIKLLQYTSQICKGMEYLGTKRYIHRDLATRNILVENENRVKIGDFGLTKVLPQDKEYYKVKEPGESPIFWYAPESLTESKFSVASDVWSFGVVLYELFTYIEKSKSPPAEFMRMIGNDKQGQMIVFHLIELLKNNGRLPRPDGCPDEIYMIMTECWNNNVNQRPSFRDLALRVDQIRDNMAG
Fyn, sequence (P06241 whole entry, looked up): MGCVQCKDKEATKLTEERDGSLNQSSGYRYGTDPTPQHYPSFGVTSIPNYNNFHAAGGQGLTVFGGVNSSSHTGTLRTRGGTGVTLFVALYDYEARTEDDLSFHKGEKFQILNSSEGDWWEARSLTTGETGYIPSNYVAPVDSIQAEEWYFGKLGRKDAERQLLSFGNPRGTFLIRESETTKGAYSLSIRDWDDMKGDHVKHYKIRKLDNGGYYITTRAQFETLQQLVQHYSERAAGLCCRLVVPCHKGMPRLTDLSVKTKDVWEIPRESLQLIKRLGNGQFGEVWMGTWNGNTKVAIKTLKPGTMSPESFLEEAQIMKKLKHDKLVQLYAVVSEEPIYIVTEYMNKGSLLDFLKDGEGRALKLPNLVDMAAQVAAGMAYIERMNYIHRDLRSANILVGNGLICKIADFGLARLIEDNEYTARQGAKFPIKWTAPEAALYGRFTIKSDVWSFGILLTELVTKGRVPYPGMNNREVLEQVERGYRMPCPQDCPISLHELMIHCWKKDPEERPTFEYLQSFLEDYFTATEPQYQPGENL
EPHB1, sequence (P54762 whole entry, looked up): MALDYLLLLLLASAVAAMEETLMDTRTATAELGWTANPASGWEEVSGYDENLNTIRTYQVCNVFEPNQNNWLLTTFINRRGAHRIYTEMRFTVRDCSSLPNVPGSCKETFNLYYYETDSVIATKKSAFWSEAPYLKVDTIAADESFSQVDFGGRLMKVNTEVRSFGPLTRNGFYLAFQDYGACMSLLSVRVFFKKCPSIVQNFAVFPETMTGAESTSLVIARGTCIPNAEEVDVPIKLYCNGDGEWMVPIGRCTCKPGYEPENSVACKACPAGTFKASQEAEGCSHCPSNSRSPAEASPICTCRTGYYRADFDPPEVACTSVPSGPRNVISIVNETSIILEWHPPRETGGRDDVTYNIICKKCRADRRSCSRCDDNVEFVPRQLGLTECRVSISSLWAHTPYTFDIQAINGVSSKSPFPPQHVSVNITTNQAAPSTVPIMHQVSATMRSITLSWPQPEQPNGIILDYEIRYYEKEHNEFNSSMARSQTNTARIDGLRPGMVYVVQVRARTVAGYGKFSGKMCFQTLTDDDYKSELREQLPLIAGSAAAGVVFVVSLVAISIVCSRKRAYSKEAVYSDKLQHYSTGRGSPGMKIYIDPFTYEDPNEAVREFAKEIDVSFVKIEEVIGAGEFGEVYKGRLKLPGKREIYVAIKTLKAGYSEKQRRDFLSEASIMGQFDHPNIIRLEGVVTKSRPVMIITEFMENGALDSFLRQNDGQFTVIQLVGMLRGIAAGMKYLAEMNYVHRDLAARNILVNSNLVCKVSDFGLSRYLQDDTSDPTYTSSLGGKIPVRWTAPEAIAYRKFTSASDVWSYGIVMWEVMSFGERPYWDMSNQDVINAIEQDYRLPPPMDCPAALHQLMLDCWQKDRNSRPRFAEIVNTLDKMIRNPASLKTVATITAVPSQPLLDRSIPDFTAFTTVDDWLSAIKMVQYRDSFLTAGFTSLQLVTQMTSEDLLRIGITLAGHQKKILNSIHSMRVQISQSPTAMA
Hck, sequence (P08631 whole entry, looked up): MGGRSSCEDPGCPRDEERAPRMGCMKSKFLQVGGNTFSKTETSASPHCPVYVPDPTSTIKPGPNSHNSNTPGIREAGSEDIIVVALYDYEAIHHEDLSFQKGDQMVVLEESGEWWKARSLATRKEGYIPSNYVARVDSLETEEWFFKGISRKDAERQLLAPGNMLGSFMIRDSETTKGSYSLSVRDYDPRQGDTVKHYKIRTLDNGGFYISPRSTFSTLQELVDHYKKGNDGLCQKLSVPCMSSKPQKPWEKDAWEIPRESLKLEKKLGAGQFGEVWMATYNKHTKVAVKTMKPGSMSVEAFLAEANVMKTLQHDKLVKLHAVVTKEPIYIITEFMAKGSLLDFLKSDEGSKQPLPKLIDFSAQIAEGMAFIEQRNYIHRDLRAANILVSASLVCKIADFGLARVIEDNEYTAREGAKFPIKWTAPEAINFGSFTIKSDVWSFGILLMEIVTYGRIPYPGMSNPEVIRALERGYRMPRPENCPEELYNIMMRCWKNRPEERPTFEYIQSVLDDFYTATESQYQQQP
FGFR3, sequence (P22607 whole entry, looked up): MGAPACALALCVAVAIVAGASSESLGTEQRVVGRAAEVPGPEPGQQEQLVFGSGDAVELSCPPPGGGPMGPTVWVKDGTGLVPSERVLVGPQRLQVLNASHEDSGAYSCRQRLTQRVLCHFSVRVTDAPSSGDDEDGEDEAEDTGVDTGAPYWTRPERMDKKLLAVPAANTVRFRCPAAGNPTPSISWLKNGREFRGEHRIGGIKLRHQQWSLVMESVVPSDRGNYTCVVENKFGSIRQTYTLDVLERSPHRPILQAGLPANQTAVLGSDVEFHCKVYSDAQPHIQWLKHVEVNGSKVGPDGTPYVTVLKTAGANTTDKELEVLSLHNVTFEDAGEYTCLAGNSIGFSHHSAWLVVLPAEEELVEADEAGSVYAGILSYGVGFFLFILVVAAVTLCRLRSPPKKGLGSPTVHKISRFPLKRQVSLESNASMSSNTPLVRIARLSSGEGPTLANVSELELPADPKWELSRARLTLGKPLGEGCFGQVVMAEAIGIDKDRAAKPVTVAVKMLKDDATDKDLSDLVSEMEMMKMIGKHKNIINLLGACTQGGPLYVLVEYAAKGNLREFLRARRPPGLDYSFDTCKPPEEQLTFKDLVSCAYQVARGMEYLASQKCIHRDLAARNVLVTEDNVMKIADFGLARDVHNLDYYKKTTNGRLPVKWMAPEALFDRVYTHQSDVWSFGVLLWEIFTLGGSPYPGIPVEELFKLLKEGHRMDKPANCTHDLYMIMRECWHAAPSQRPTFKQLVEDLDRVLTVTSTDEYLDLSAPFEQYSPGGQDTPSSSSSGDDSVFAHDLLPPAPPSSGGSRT

Sequence	phosphorylation enrichment (AncSZ)	phosphorylation enrichment (EPHB1)	phosphorylation enrichment (EPHB2)	phosphorylation enrichment (FGFR1)	phosphorylation enrichment (FGFR3)	phosphorylation enrichment (Fer (mouse))	phosphorylation enrichment (Fes)	phosphorylation enrichment (Fyn)	phosphorylation enrichment (Hck)	phosphorylation enrichment (Jak2)	phosphorylation enrichment (MERTK)	phosphorylation enrichment (c-Abl (mouse))	phosphorylation enrichment (c-Src)	SH2 binding enrichment (Grb2 SH2)	SH2 binding enrichment (SHP2-C SH2)	SH2 binding enrichment (c-Src SH2)
RAIGHYSATSK [FAM120A_Y328_Y327H]	0.964	0.684	0.819	0.576	0.892	0.542	0.97	0.522	0.942	0.665	0.757	0.777	0.665	0.702	0.81	0.619
RAILDYIASKF [GSTA3_Y74_N73D_YF]	0.674	0.479	0.445	0.567	0.79	0.542	1.02	0.433	0.395	0.755	0.375	0.603	0.358	1.08	1.06	0.689
RAYRRYLLKQK [SCN2A_Y1919]	0.729	0.353	0.468	0.489	0.495	0.415	0.491	0.559	0.51	0.486	0.387	0.42	0.446	0.61	0.573	0.514
RCNHPYLINGA [CHD7_Y1256_C1251R]	0.664	0.249	0.518	0.464	0.569	0.505	0.68	0.401	0.506	0.646	0.429	0.578	0.481	0.931	0.693	0.732
RDHYGYRQSVT [CD55_Y245]	1.22	0.883	0.472	0.747	0.339	0.748	0.794	0.866	0.806	0.455	0.774	0.794	0.822	0.98	0.775	0.484
REIHDYIKHLG [UNC13C_Y308_D304E]	0.631	0.699	0.663	0.371	0.741	0.651	1.26	0.821	0.511	0.843	0.723	0.794	1.02	0.788	0.475	0.512
RELGEYPLAEF [ALDH1A3_Y492_A493P_YF]	1.18	0.511	0.645	0.709	0.742	0.484	1.14	0.636	0.536	1.41	0.614	0.753	0.582	0.763	0.617	2.13
REQREYLEQLN [CCDC88B_Y1277_D1279E]	1.18	0.54	0.559	0.611	0.755	0.523	0.939	0.531	0.706	1.15	0.58	0.786	0.529	0.679	0.73	0.52
REVKAYGAGLL [TH_Y419_G414R]	0.559	0.487	0.405	0.411	0.817	0.853	0.649	0.532	0.419	0.53	0.411	0.55	0.363	0.786	0.776	0.618
REVPVYIGEDS [SYNM_Y460]	1.05	0.391	0.547	0.661	0.909	0.499	1.36	0.402	0.659	1.02	0.426	0.595	0.481	0.707	0.625	0.691
RFLRGYRQDAF [HLA-A_Y137_YF]	0.644	0.742	0.47	0.569	0.677	0.658	1.01	0.489	0.802	0.498	0.799	0.708	0.413	1	0.888	0.559
RFVTRHIFNRE [HLA-DQB1_Y62_Y62H_YF]	0.843	0.482	0.314	0.584	0.658	0.43	1.12	0.651	0.431	0.766	0.583	0.719	0.62	0.443	0.721	0.293
RGDTVYTVNRM [KBTBD13_Y404]	1.05	0.825	0.441	0.824	1.21	0.83	1.35	5.2	1.61	0.834	0.808	1.06	4.93	1.09	0.655	0.423
RGMVMYTSKDR [ZG16B_Y136]	0.941	0.623	0.597	0.523	0.645	0.413	0.857	0.493	0.614	0.744	0.528	0.428	0.533	0.697	0.584	0.648
RGNKEYKEEKR [LENG1_Y96_E97K]	0.462	0.369	0.423	0.606	0.735	0.303	0.861	0.399	0.425	0.511	0.392	0.688	0.398	1.25	1.42	0.975
RGNMYYENSYA [EGFR_Y113]	0.957	1.04	0.619	1.29	1.02	2.84	1.2	0.832	0.845	2.08	2.85	1.65	1.19	10.5	0.978	5.02
RGRKVYLEDGF [PRIM2_Y201]	1.04	0.662	0.649	0.749	0.851	1.13	0.911	0.698	0.852	0.808	1.15	1.29	1.11	1	0.353	0.435

Sequence	phosphorylation enrichment (AncSZ)	phosphorylation enrichment (EPHB1)	phosphorylation enrichment (EPHB2)	phosphorylation enrichment (FGFR1)	phosphorylation enrichment (FGFR3)	phosphorylation enrichment (Fer (mouse))	phosphorylation enrichment (Fes)	phosphorylation enrichment (Fyn)	phosphorylation enrichment (Hck)	phosphorylation enrichment (Jak2)	phosphorylation enrichment (MERTK)	phosphorylation enrichment (c-Abl (mouse))	phosphorylation enrichment (c-Src)	SH2 binding enrichment (Grb2 SH2)	SH2 binding enrichment (SHP2-C SH2)	SH2 binding enrichment (c-Src SH2)
RGRSTYYWPSP [GAGE12J_Y9_R13S]	2.12	0.994	0.871	1.49	1.01	0.699	0.885	0.938	0.949	0.656	6.32	0.647	1.23	0.647	0.472	0.373
RHFTGYRIELQ [INSR_Y818]	1.01	0.472	0.56	0.531	0.661	0.544	1.37	0.604	0.401	0.989	0.546	0.805	0.525	1.77	2.13	1.38
RHLQEYQDPLN [GFAP_Y349_L352P]	0.823	0.504	0.739	0.723	0.668	0.472	0.959	0.579	0.517	0.878	0.576	0.753	0.503	0.949	0.842	0.645
RHPFFFAPELL [ALB_Y174_Y174F_YF]	1.64	0.947	0.842	0.619	1.64	0.529	1.72	0.771	0.859	1.15	0.727	1.02	0.932	1.34	1.44	1.05
RHTRSYDFMEG [FGF7_Y56_YF]	0.848	0.293	0.792	0.591	0.726	0.794	1.19	0.823	0.857	0.852	1.13	1.3	0.82	0.944	1.2	1.92
RHTRSYDYMEG [FGF7_Y56]	0.609	0.534	0.92	0.7	0.529	0.533	0.958	0.561	0.716	0.513	0.628	0.552	0.389	1.33	1.06	3.83
RIFDFYSARKA [STOX1_Y858_YF]	1.21	1.1	0.847	0.82	0.979	0.72	1.59	0.849	1.33	0.729	0.644	1.04	0.645	0.75	0.538	0.529
RIVEIYSRRLQ [GCH1_Y175]	0.942	0.645	0.92	0.777	0.96	0.556	0.976	0.921	1.02	0.794	0.678	0.747	0.803	0.789	0.879	0.617
RKKEEYKMALY [F8_Y1990]	0.492	0.337	0.387	0.58	0.33	0.289	0.708	0.46	1.05	0.477	0.462	0.632	0.546	1.38	0.762	0.931
RKNAKYLLKGE [CDH5_Y82]	0.779	0.848	0.821	0.712	0.545	0.666	1.37	0.64	0.577	0.827	0.718	0.901	0.687	1.19	1.06	0.749
RKRQFYLYKGK [RSPO4_Y112_C107R]	0.613	0.343	0.615	0.437	0.4	0.494	0.432	0.503	0.358	0.228	0.602	0.296	0.44	0.965	0.428	0.378
RLAKRYLIWEC [SCN5A_Y694_Q692K]	1.15	0.607	0.604	0.64	0.812	0.626	1.06	0.375	0.505	0.852	0.503	0.771	0.486	0.911	0.654	0.704
RLLVIYPWTQR [HBG2_Y36_V35I]	1.98	0.836	0.639	0.594	1.03	0.498	1.46	0.793	0.635	1.12	0.58	0.907	0.588	1.97	1.49	1.31
RLLVVYPWTQG [HBG2_Y36_R41G]	0.894	0.542	0.378	0.603	0.58	0.289	0.932	0.499	0.416	0.987	0.27	0.593	0.305	2.61	1.82	1.66
RLNAIYQNNLT [GSR_Y158]	0.813	0.632	0.609	0.502	0.665	1.06	0.75	0.772	1.25	0.565	0.414	0.539	1.08	5.31	0.986	0.796
RLQAAYNLVKR [PFKM_Y103_R100Q]	0.787	0.59	0.388	0.525	0.489	0.494	1.19	0.731	0.633	0.866	0.541	0.853	0.526	1.86	2.08	1.51
